Key:
Human serum albumin [1] = target: T1, Human serum albumin (human, UniProt P02768 25-609); experiment: cell-based or functional assay
Mouse serum albumin [2] = target: T2, Mouse serum albumin (mouse, UniProt P07724 25-608); experiment: ITC; VP-ITC calorimeter; peptide serially diluted and injected; KD by Microcal ORIGIN Ver. 5.0; method by refs 48, 49; settings: both partners purified
T2 construct: serum albumin, mouse; also called MSA; source: bought: Sigma

Human serum albumin [3] = target: T1, Human serum albumin; experiment: as above; settings: both partners purified
[4] = target: T3, Recombinant human TNFRI, disulfide-linked homodimer (human, UniProt P19438 30-455); experiment: as above; settings: both partners purified
Mouse serum albumin [5] = target: T2, Mouse serum albumin; experiment: SPR; BIAcore 3000; peptide serially diluted and injected; KD by BIAcore kinetic evaluation Ver. 4.1; method by refs 48, 49; settings: both partners purified
Human serum albumin [6] = target: T1, Human serum albumin; experiment: as above; settings: both partners purified
[7] = target: T3, Recombinant human TNFRI, …; experiment: as above; settings: both partners purified
[8] = target: T4, Human TNFRI of ML-la cells (human, UniProt P19438 30-455); experiment: radioligand binding; competition: ML-la cells (1 × 10^6 cells/well) preincubated with anti-p60 or anti-p80 antibody (25 °C, 30 min) to block TNFRI or TNFRII, then 125I-labeled TNF α with unlabeled TNF α or RMP16 (10^-11 to 10^-5 M) in RPMI 1640 with 10% fetal calf serum, 25 °C, 1 h; cell-bound radioactivity counted; settings: one partner purified
T4 construct: also called p60; source: endogenous, on ML-la cells (human myelomonoblastic leukemia cell line)
T4 sequence (looked up): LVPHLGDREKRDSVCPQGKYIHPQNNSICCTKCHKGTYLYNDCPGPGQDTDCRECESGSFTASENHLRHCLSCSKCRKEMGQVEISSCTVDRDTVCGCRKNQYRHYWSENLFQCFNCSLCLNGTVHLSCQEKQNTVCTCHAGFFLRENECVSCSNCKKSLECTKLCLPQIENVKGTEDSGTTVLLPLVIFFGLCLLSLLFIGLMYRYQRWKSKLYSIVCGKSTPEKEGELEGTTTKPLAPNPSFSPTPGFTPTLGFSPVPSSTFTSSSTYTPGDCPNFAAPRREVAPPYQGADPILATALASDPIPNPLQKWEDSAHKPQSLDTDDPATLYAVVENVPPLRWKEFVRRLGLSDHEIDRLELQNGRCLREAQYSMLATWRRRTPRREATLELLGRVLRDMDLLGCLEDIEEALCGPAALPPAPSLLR

T2 sequence (P07724 25-608): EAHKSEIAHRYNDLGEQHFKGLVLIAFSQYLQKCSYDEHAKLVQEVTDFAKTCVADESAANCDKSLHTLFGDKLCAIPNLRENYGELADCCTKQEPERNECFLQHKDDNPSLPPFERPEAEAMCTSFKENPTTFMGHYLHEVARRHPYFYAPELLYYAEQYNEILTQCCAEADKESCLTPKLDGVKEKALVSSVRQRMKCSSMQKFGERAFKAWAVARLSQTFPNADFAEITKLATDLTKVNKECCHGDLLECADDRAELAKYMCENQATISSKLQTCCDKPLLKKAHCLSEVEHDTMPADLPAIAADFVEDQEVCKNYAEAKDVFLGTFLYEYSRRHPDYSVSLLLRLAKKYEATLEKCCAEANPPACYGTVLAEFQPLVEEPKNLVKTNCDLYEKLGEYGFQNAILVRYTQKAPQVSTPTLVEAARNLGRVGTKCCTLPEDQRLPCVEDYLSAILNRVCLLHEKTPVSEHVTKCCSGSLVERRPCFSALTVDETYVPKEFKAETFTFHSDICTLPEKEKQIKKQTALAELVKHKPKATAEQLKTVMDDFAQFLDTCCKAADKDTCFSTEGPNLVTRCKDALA

- in vitro Factor Xa enzyme digestion half-life of RMP16 (10 μM) in the presence of HSA (2 μM), against 9.72 h without HSA (Human serum albumin [1]): 15.8 h
- Kd (Mouse serum albumin [2]): 894 nM
- Kd (Human serum albumin [3]): 822 nM
- Kd [4]: 20.4 nM
- Kd (Mouse serum albumin [5]): 925 nM
- Kd (Human serum albumin [6]): 875 nM
- Kd [7]: 21.3 nM
- IC50 [8]: 15.1 nM
B1: RMP16, recombinant TNF α-derived polypeptide (peptide)
chain: MWQRPSSWIEGRLLTHTISRIAVSYQTKVNLL
notes: P16, TNF α segment of amino acid residues 75-94, human; also called recombinant peptide RMP16

From paper PMC4559766 (Scientific Reports, 2015)
